Patent US20250257133A1 (ADAGENE PTE, published 2025)
Read-outs that look alike come from different tables or passages of the source. Blank lines part the entries; values can stand above or below the binder they belong to.

Experiments:
[1] = target: T1, Recombinant human CD28-Fc (human, UniProt P10747 19-152); experiment: ELISA, coated CD28-Fc
T1 construct: not shown: Fc part

[2] = target: T2, His-tagged human CD28 protein (human, UniProt P10747 19-152); experiment: Octet BLI, mAb captured;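 note: Anti-human Fc biosensors captured the antibodies, then His-tagged protein analytes at 100 nM associated for 300 s and dissociated for 300 s, fitted by a 1:1 Langmuir model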
T2 construct: not shown: His tag

[3] = target: T3, His-tagged human CTLA4 protein (human, UniProt P16410 36-161, limits assumed); experiment: Octet BLI, mAb captured;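 note: Anti-human Fc biosensors captured the antibodies, then His-tagged protein analytes at 100 nM associated for 300 s and dissociated for 300 s, fitted by a 1:1 Langmuir model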
T3 construct: not shown: His tag
T3 sequence (P16410 36-161 limits assumed): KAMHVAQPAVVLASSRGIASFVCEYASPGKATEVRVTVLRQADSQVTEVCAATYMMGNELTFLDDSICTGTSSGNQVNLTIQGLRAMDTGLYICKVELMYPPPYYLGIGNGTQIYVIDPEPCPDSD

Human CD28 on cells = target: T4, Human CD28 on cells (human, UniProt P10747 19-220); experiment: flow cytometry, Jurkat cells
T4 construct: Jurkat E6-1 cells, primary human T cells, or transfected HEK293F cells; also called CD28 on Jurkat cells; CD28 on human CD3+ T cells
Procedure: Next, the cells were washed twice with DPBS and further incubated with a APC-anti-human IgG Fc secondary antibody (1 μg/mL, 100 μL/well, Biolegend) for 30 minutes at 4° C. Finally, the cells were washed twice with DPBS and suspended in FACS buffer for flow cytometry analysis. For analysis, the Mean Fluorescence Intensity (MFI) values versus concentrations were plotted using FlowJo 10 software (FlowJo LLC) and the data were further fitted with four-parameter non-linear regression to obtain EC₅₀ values by GraphPad Prism version 7 for Windows, GraphPad Software, La Jolla California USA, www.graphpad.com.

[4] = target: Human CD28 (ELISAs of Examples 4 and 13) (human, UniProt P10747 19-152, limits assumed); experiment: ELISA, blocking of CD28-CD80
[5] = target: T5, Recombinant mouse CD28-Fc (mouse, UniProt P31041 20-150); experiment: ELISA on coated recombinant mouse CD28-Fc, HRP anti-human IgG (Fab specific), A450; panel 'Mouse CD28'
T5 construct: not shown: Fc part
T5 sequence (P31041 20-150 limits assumed): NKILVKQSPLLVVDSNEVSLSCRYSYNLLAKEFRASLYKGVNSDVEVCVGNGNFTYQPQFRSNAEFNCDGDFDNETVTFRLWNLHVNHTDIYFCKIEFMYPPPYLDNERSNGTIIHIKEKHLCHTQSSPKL

[6] = target: Human CTLA4 (ligand competition ELISA) (human, UniProt P16410 36-161, limits assumed); experiment: ELISA, blocking of CTLA4-CD80
Human CTLA4 (ligand competition ELISA), sequence (P16410 36-161 limits assumed): as the sequence (P16410 36-161 limits assumed) above

[7] = target: T6, TROP2 on tumor cell lines (UniProt P09758 27-323, limits assumed); experiment: flow cytometry, H292 cells
T6 construct: whole, on cells; also called tumor-associated calcium signal transducer 2; TROP2 on H292, NCI-N87, HT-29
T6 sequence (looked up): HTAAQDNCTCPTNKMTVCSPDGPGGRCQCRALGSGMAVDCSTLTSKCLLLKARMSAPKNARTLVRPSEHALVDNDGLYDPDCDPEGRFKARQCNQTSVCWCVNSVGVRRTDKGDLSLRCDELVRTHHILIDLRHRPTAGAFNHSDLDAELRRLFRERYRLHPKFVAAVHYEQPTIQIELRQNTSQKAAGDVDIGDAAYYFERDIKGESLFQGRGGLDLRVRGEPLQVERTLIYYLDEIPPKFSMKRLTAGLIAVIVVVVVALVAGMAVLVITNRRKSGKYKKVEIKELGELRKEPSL
Procedure: (§1) H292, NCI-N87, or HT29 cells were cultured and seeded in 96-well plates at 1.0×10⁵ cells/well and incubated with serially diluted test anti-TROP2 BsAbs for 30 minutes at 4° C. in 2% FBS/RPMI1640 buffer. Next, the cells were washed twice with DPBS and further incubated with secondary anti-human IgG antibodies (APC-anti-human IgG Fc antibody, 1:300 dilution for H292 cell; APC-F (ab′) 2 fragment goat anti-human IgG (H+L), 1:500 dilution for NCI-N87 and HT29 cells) for 30 minutes at 4° C. Finally, the cells were washed twice with DPBS and resuspended in FACS buffer for flow cytometry analysis. For analysis, the MFI values versus concentrations were plotted using FlowJo 10 software (FlowJo LLC) and the data were further fitted with four-parameter non-linear regression to obtain EC₅₀ values by GraphPad Prism version 7 for Windows.

[8] = target: T6, TROP2 on tumor cell lines; experiment: flow cytometry, HT-29 cells
Procedure: as §1

[9] = target: T6, TROP2 on tumor cell lines; experiment: flow cytometry, NCI-N87 cells
Procedure: as §1

[10] = target: T5, Recombinant mouse CD28-Fc; experiment: ELISA, coated CD28-Fc
Procedure: Recombinant human and mouse CD28-Fc were diluted to 2 g/mL in PBS and coated on Nunc MaxiSorp™ high protein-binding capacity 96 well ELISA plates (ThermoFisher Scientific) at 4° C. overnight. Plates were blocked with PBS supplemented with 3% non-fat milk at 37° C. for 1 hour. After washing, 50 PL of 3-fold serial dilutions of a panel of anti-CD28 test mAbs were added to each well. After incubation at 37° C. for 1 hour, plates were washed four times, and 100 μL of a horseradish peroxidase (HRP)-conjugated anti-human IgG (Fab specific) (1:6000 dilution) secondary antibody was added to each well. Plates were incubated at 37° C. for 1 hour, washed four times, and then 50 μL of a TMB substrate (3, 3′, 5, 5′-tetramethylbenzidine) solution was added to each well, and the plate was incubated at room temperature. Absorbance at 450 nm was measured after the reactions were stopped by adding 50 μL of a sulfuric acid stop solution to each well. The EC₅₀ was evaluated by fitting the ELISA data using the asymmetrical sigmoidal (4-parameter logistic equation) model of GraphPad Prism version 7 for Windows, GraphPad Software, La Jolla California USA, www.graphpad.com.

[11] = target: T1, Recombinant human CD28-Fc; experiment: ELISA on coated recombinant human CD28-Fc, HRP anti-human IgG (Fab specific), A450
Procedure: (§2) When measuring the masking efficiency through ELISA, recombinant human CD28-Fc was diluted to 2 g/mL in PBS and coated onto a MaxiSorp™ high protein-binding capacity 96 well ELISA plate (ThermoFisher Scientific) at 4° C. overnight. Plates were blocked with PBS supplemented with 3% non-fat milk at 37° C. for 1 hour. After washing, 100 μL of 3-fold serial dilutions of anti-CD28 test mAbs were added to each well. After incubation at 37° C. for 1 hour, plates were washed four times, and 100 μL horseradish peroxidase (HRP)-conjugated anti-human IgG (Fab specific) (1:6000 dilution) secondary antibody was added to each well. Plates were incubated at 37° C. for 1 hour, washed four times, and then 50 μL a TMB substrate (3, 3′, 5, 5′-tetramethylbenzidine) solution was added to each well, and the plate was incubated at room temperature. Absorbance at 450 nm was measured after the reactions were stopped with 50 μL sulfuric acid stop solution per well. The EC₅₀ was evaluated by fitting the ELISA data using the sigmoidal (four-parameter logistic equation) model of GraphPad Prism version 6 for Windows, GraphPad Software, La Jolla California USA, www.graphpad.com.

[12] = target: T1, Recombinant human CD28-Fc; experiment: as above; remark: listed apart in the source
Procedure: as §2

B2: TY21580 (antibody, V domains shown)
VH: EVQLVESGGGLVQPGGSLRLSCAASGYSISSGYHWSWIRQAPGKGLEWLARIDWDDDKYYSTSLKSRLTISRDNSKNTLYLQLNSLRAEDTAVYYCARSYVYFDYWGQGTLVTVSS
VL: DIQLTQSPSSLSASVGDRVTITCRASQSVRGRFLAWYQQKPGKAPKLLIYDASNRATGIPSRFSGSGSGTDFTLTISSLQPEDFATYYCQQSSSWPPTFGQGTKVEIKR
IC50 [6]: 37.2 nM

B3: TY27571 (bispecific antibody, human IgG1, kappa, N297A)
light: DIQLTQSPSSLSASVGDRVTITCRASQDVSIAVAWYQQKPGKAPKLLIYSASYRYTGVPARFSGSGSGTDFTLTISSLQPEDFATYYCQQHYITPLTFGQGTKVEIKRTVAAPSVFIFPPSDEQLKSGTASVVCLLNNFYPREAKVQWKVDNALQSGNSQESVTEQDSKDSTYSLSSTLTLSKADYEKHKVYACEVTHQGLSSPVTKSFNRGEC
heavy: QVQLLQSGSELKKPGASVKVSCKASGYTFTNYGINWVRQAPGQGLEWLGWIHTYTGEPTYTDDFKGRFVFSLDTSVSTAYLQISSLKADDTAVYYCARGGFGSSYWYFDVWGQGTLVTVSSASTKGPSVFPLAPSSKSTSGGTAALGCLVKDYFPEPVTVSWNSGALTSGVHTFPAVLQSSGLYSLSSVVTVPSSSLGTQTYICNVNHKPSNTKVDKKVEPKSCDKTHTCPPCPAPELLGGPSVFLFPPKPKDTLMISRTPEVTCVVVDVSHEDPEVKFNWYVDGVEVHNAKTKPREEQYASTYRVVSVLTVLHQDWLNGKEYKCKVSNKALPAPIEKTISKAKGQPREPQVYTLPPSRKKLTKNQVKLTCLVKGFYPSDIAVEWESNGQPENNYKTTPPVLDCDGSFFLYSKLTVDKSRWQQGNVFSCSVMHEALHNHYTQKSLSLSPGK
chain: DIQLTQSPSSLSASVGDRVTITCRASQSVDFHGISFLHWYQQKPGKAPKLLIYAASSLQSGVPSRFSGSGSGTDFTLTISSLQPEDFATYYCQQSYRSPRTFGQGTKVEIKGGGGSGGGGSGGGGSGGGGSEVQLVESGGGLVQPGGSLRLSCAASGFSLSTGGVGVSWIRQAPGKGLEWIGEIYHSGSTYYSPSLKSRVTISRDNSKNTLYLQLNSLRAEDTAVYYCARYEYYYYDFDYWGQGTLVTVSSEPKSSDKTHTCPPCPAPELLGGPSVFLFPPKPKDTLMISRTPEVTCVVVDVSHEDPEVKFNWYVDGVEVHNAKTKPREEQYASTYRVVSVLTVLHQDWLNGKEYKCKVSNKALPAPIEKTISKAKGQPREPQVYTDPPSRDELTKNQVSLTCLVDGFYPSDIAVEWESNGQPENCYKTTPPVLDSDGSFFLYSKLTVDKSRWQQGNVFSCSVMHEALHNHYTQDSLSLSPGK
notes: also called anti-TROP2xCD28 BsAb
EC50 [7]: 0.822 nM
EC50 [8]: 0.559 nM
EC50 [9]: 0.911 nM

The next lines start with the values.

EC50 [1]: 1.55 nM
Kd [2]: 4.44 nM
koff [2]: 0.000437 s⁻¹
kon [2]: 98500 M⁻¹ s⁻¹
Kd [3]: 3.13 nM
koff [3]: 0.00344 s⁻¹
kon [3]: 1.1e+06 M⁻¹ s⁻¹
EC50 (Human CD28 on cells): 0.59 nM
IC50 [4]: 0.21 nM
binding result [5]: no binding (tested: about 10^-6.9 M)
B1: TY24890 (antibody, human IgG4 S228P, kappa, V domains shown)
VH: EVQLVESGGGLVQPGGSLRLSCAASGYSISSGHHWGWIRQAPGKGLEWIGEIYHSGSTYYSPSLKSRVTISRDNSKNTLYLQLNSLRAEDTAVYYCARRELGYAYFDYWGQGTLVTVSS
VL: EIVLTQSPATLSLSPGERATLSCRASQDIRKYLAWYQQKPGQAPRLLIYAASTLQSGVPARFSGSGSGTDFTLTISSLEPEDFAVYYCQQYYRTPLTFGQGTKVEIKR
notes: hIgG4/S241P

EC50 [1]: 0.58 nM
EC50 [10]: > 4.94 nM
Kd [2]: < 0.001 nM
binding result [3]: no binding (tested: 100 nM CTLA4)
EC50 (Human CD28 on cells): 0.46 nM
IC50 [4]: 0.68 nM
EC50 (read off the curve) [11]: ~0.7 nM
EC50 (read off the curve) [12]: ~0.9 nM
B4: TY24865 (antibody, human IgG4 S228P, kappa)
heavy: not shown
light: DIQLTQSPSSLSASVGDRVTITCRASQSVDFHGISFLHWYQQKPGKAPKLLIYAASSLQSGVPSRFSGSGSGTDFTLTISSLQPEDFATYYCQQSYRSPRTFGQGTKVEIKRTVAAPSVFIFPPSDEQLKSGTASVVCLLNNFYPREAKVQWKVDNALQSGNSQESVTEQDSKDSTYSLSSTLTLSKADYEKHKVYACEVTHQGLSSPVTKSFNRGEC
notes: hIgG4/S241P; also called parental anti-CD28 antibody
